Measurements reported in US20150344570A1 (published 2015).

T1: FcγRIIb extracellular domain with C-terminal His tag (human, UniProt P31994 43-217)
T1 construct: extracellular domain; Expressed in FreeStyle293 cells; analyte in the SPR assay; also called FcgRIIb; 2b
T1 sequence (looked up): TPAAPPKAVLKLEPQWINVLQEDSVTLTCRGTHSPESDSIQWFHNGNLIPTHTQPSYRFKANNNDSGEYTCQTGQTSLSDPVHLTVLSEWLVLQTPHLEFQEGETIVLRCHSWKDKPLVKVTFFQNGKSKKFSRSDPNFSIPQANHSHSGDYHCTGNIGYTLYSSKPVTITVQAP

T2: FcγRIIa R (human, UniProt P12318 34-217)
T2 construct: extracellular domain; also called FcgRIIa R; FcγRIIa type R; not shown: His tag at the C terminus
T2 sequence (looked up): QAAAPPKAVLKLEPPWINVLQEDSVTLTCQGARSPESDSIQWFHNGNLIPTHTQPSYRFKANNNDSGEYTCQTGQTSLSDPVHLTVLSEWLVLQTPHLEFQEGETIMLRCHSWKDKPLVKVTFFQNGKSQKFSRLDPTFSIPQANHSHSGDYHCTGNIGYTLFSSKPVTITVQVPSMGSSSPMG

T3: FcγRIIb (human, UniProt P31994 43-217)
T3 construct: extracellular domain; also called FcgRIIb; 2b; not shown: His tag at the C terminus
T3 sequence (looked up): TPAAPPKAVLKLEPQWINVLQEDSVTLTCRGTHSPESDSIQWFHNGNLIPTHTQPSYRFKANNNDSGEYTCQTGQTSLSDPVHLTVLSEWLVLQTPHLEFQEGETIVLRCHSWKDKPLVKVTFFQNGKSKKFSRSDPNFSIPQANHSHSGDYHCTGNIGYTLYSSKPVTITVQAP


Legend:
[1] = molecular target: T4, FcγRIa extracellular domain with C-terminal His tag (human, UniProt P12314 16-292); experiment: SPR (Biacore), relative binding, HeCon Ab = 100
T4 construct: extracellular domain; Expressed in FreeStyle293 cells; analyte in the SPR assay; also called FcgRI; 1a

[2] = molecular target: T1, FcγRIIb extracellular domain with …; experiment: SPR (Biacore), relative binding, HeCon Ab = 100
[3] = molecular target: T4, FcγRIa extracellular domain with …; experiment: SPR (Biacore); He/Con_1a divided by He/Con_2b (FcγRIa against FcγRIIb)
FcγRIIa R [4] = molecular target: T2, FcγRIIa R; experiment: SPR (Biacore T100); He/Con_2aR divided by He/Con_2b (FcγRIIa R over FcγRIIb)
FcγRIIa R [5] = molecular target: T2, FcγRIIa R; experiment: SPR (Biacore T100), antibody captured on antigen peptide chip, FcγR as analyte; binding relative to GpH7-A5/GpH7-B3/GpL16-k0 = 100
FcγRIIb = molecular target: T3, FcγRIIb; experiment: as above

T4 sequence (P12314 16-292): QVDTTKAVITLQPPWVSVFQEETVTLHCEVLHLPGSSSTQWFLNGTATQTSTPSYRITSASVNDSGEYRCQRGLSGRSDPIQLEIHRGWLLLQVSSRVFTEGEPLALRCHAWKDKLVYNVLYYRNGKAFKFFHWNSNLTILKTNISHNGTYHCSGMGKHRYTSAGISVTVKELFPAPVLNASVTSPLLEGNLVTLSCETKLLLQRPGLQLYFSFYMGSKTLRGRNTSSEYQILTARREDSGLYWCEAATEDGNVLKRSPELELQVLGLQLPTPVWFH

He/Con_1a [1]	He/Con_2b [2]	He_1a/2b (Ia/IIb) [3]	He_2aR/2b (IIaR/IIb) (FcγRIIa R [4])	He/Con_2aR (IIaR binding) (FcγRIIa R [5])	He/Con_2b (IIb binding) (FcγRIIb)	Binder
96.4 % of HeCon Ab (=100)	39.3 % of HeCon Ab (=100)	2.45 ratio	–	–	–	GpH7-A5/GpH7-B3 variant G236_04F/GpL16-k0 (He Ab) (antibody, human IgG1, kappa, He Ab: mutation in one H chain only) heavy 1: not shown heavy 2: not shown light: DIVMTQSPLSLPVTPGEPASISCQASESLVHSNRNTYLHWYLQKPGQSPQLLIYKVSNRFSGVPDRFSGSGSGTDFTLKISRVEAEDVGVYYCSQNTHVPPTFGQGTKVEIERTVAAPSVFIFPPSDEQLKSGTASVVCLLNNFYPREAKVQWKVDNALQSGNSQESVTEQDSKDSTYSLSSTLTLSKADYEKHKVYACEVTHQGLSSPVTKSFNRGEC
78 % of HeCon Ab (=100)	–	8.12 ratio	–	–	–	GpH7-A5/GpH7-B3 variant L235_12R/GpL16-k0 (He Ab) (antibody, human IgG1, kappa, He Ab: mutation in one H chain only) heavy 1: not shown heavy 2: not shown light: DIVMTQSPLSLPVTPGEPASISCQASESLVHSNRNTYLHWYLQKPGQSPQLLIYKVSNRFSGVPDRFSGSGSGTDFTLKISRVEAEDVGVYYCSQNTHVPPTFGQGTKVEIERTVAAPSVFIFPPSDEQLKSGTASVVCLLNNFYPREAKVQWKVDNALQSGNSQESVTEQDSKDSTYSLSSTLTLSKADYEKHKVYACEVTHQGLSSPVTKSFNRGEC
–	–	–	1.24 ratio	54.8 % of control	44.1 % of control	GpH7-A5/GpH7-B3 variant S239_04F/GpL16-k0 (antibody, human IgG1, kappa, Heterodimerized anti-glypican-3 IgG1; mutation in one H chain only; also called He Ab) heavy 1: not shown heavy 2: not shown light: DIVMTQSPLSLPVTPGEPASISCQASESLVHSNRNTYLHWYLQKPGQSPQLLIYKVSNRFSGVPDRFSGSGSGTDFTLKISRVEAEDVGVYYCSQNTHVPPTFGQGTKVEIERTVAAPSVFIFPPSDEQLKSGTASVVCLLNNFYPREAKVQWKVDNALQSGNSQESVTEQDSKDSTYSLSSTLTLSKADYEKHKVYACEVTHQGLSSPVTKSFNRGEC
–	–	–	1.38 ratio	53.9 % of control	39.1 % of control	GpH7-A5/GpH7-B3 variant S239_12R/GpL16-k0 (antibody, human IgG1, kappa, Heterodimerized anti-glypican-3 IgG1; mutation in one H chain only; also called He Ab) heavy 1: not shown heavy 2: not shown light: DIVMTQSPLSLPVTPGEPASISCQASESLVHSNRNTYLHWYLQKPGQSPQLLIYKVSNRFSGVPDRFSGSGSGTDFTLKISRVEAEDVGVYYCSQNTHVPPTFGQGTKVEIERTVAAPSVFIFPPSDEQLKSGTASVVCLLNNFYPREAKVQWKVDNALQSGNSQESVTEQDSKDSTYSLSSTLTLSKADYEKHKVYACEVTHQGLSSPVTKSFNRGEC
97.5 % of HeCon Ab (=100)	64.9 % of HeCon Ab (=100)	1.5 ratio	–	–	–	GpH7-A5/GpH7-B3 variant L234_02A/GpL16-k0 (He Ab) (antibody, human IgG1, kappa, He Ab: mutation in one H chain only) heavy 1: not shown heavy 2: not shown light: DIVMTQSPLSLPVTPGEPASISCQASESLVHSNRNTYLHWYLQKPGQSPQLLIYKVSNRFSGVPDRFSGSGSGTDFTLKISRVEAEDVGVYYCSQNTHVPPTFGQGTKVEIERTVAAPSVFIFPPSDEQLKSGTASVVCLLNNFYPREAKVQWKVDNALQSGNSQESVTEQDSKDSTYSLSSTLTLSKADYEKHKVYACEVTHQGLSSPVTKSFNRGEC
77 % of HeCon Ab (=100)	19 % of HeCon Ab (=100)	4.05 ratio	–	–	–	GpH7-A5/GpH7-B3 variant G236_05P/GpL16-k0 (He Ab) (antibody, human IgG1, kappa, He Ab: mutation in one H chain only) heavy 1: not shown heavy 2: not shown light: DIVMTQSPLSLPVTPGEPASISCQASESLVHSNRNTYLHWYLQKPGQSPQLLIYKVSNRFSGVPDRFSGSGSGTDFTLKISRVEAEDVGVYYCSQNTHVPPTFGQGTKVEIERTVAAPSVFIFPPSDEQLKSGTASVVCLLNNFYPREAKVQWKVDNALQSGNSQESVTEQDSKDSTYSLSSTLTLSKADYEKHKVYACEVTHQGLSSPVTKSFNRGEC
104 % of HeCon Ab (=100)	73.1 % of HeCon Ab (=100)	1.43 ratio	–	–	–	GpH7-A5/GpH7-B3 variant L234_03V/GpL16-k0 (He Ab) (antibody, human IgG1, kappa, He Ab: mutation in one H chain only) heavy 1: not shown heavy 2: not shown light: DIVMTQSPLSLPVTPGEPASISCQASESLVHSNRNTYLHWYLQKPGQSPQLLIYKVSNRFSGVPDRFSGSGSGTDFTLKISRVEAEDVGVYYCSQNTHVPPTFGQGTKVEIERTVAAPSVFIFPPSDEQLKSGTASVVCLLNNFYPREAKVQWKVDNALQSGNSQESVTEQDSKDSTYSLSSTLTLSKADYEKHKVYACEVTHQGLSSPVTKSFNRGEC
–	–	–	1.21 ratio	42.2 % of control	34.9 % of control	GpH7-A5/GpH7-B3 variant S239_15Y/GpL16-k0 (antibody, human IgG1, kappa, Heterodimerized anti-glypican-3 IgG1; mutation in one H chain only; also called He Ab) heavy 1: not shown heavy 2: not shown light: DIVMTQSPLSLPVTPGEPASISCQASESLVHSNRNTYLHWYLQKPGQSPQLLIYKVSNRFSGVPDRFSGSGSGTDFTLKISRVEAEDVGVYYCSQNTHVPPTFGQGTKVEIERTVAAPSVFIFPPSDEQLKSGTASVVCLLNNFYPREAKVQWKVDNALQSGNSQESVTEQDSKDSTYSLSSTLTLSKADYEKHKVYACEVTHQGLSSPVTKSFNRGEC
